The values that follow come from paper doi:10.1101/2023.09.11.557288, “An explainable language model for antibody specificity prediction using curated influenza hemagglutinin antibodies” (bioRxiv, 2023).

Assay [1] has as its target T1, H1N1 A/Solomon Islands/3/2006 (SI06) HA (Influenza A virus, A/Solomon …, UniProt A7Y8I1).
T1 construct: also called HA from H1N1 A/Solomon Island/3/2006
The assay is described as follows: BLI; His-tagged antigen at 0.5 uM loaded on anti-Penta-HIS (HIS1K) biosensors, Fab in solution; room temperature; 1x PBS pH 7.4, 0.01% BSA, 0.002% Tween 20; 1:1 binding model. To be noted: both partners purified.

The target of another assay is T2, mini-HA #4900 (Influenza A virus H1N1, designed stem …, stabilised).
T2 construct: also called H1 stem-based construct; HA stem-based construct without the HA head domain; not shown: 6xHis, C-terminal, kept
The description is as above. To be noted: both partners purified.

B1: 310–18A5 Fab (Fab, V domains shown)
VH: QVQLMQSGTEVKKPGSSVRVSCKASGSTFNSDAISWVRQAPGQGLEWMGGILGMFRTVNYAQRFQGRVTITADELMSTAYMELSGLRFEDTAVYYCARGDGYKPNFLRYWGQGTLITVSS
VL: TLSLSPGERATLSCRASQSVSSTSLAWYQQKFGQAPRLLIYGASNRATGIPDRFSGSGSGTDFTLTISRLEPEDFAVYYCQQYGNSLTFGGGTKVEIK
As to B1, the Kd is 0.2 nM in assay [1] and 1 nM with mini-HA #4900.
